Assay results reported in US12383631 (BRIGHT PEAK THERAPEUTICS, dated 2025).
Values belong to the binder of their own block, whether it stands above or below them.

Assays:
human IL-18BP-His = target: T1, human IL-18BP-His (human, UniProt O95998 31-194, limits assumed); experiment: AlphaLISA of free IL-18BP
T1 construct: also called His-tagged human IL-18BP; not shown: His tag
T1 sequence (looked up): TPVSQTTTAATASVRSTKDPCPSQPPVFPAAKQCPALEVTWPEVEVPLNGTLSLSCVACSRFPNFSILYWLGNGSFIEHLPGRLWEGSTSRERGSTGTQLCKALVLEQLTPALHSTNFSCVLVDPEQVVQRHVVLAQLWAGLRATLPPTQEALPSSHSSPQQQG
Description: The plate is incubated further for 1 hr at room temperature. Under subdued light, 12.5 µL of 2× streptavidin (SA) donor beads are pipetted into each well, and the wells are incubated with shaking for an additional 30 min at room temperature. The AlphaLisa signal is then measured on an Enspire plate reader with 680 and 615 nm as excitation and emission wavelengths, respectively. The dissociation constant (K_D) is calculated based on a variable slope, four parameter analysis using GraphPad PRISM software.

[1] = target: T2, IL-18 receptor (IL-18Rα/IL-18Rβ) on cells (HEK-Blue IL18R reporter cells, NK-92, KG-1) (human, UniProt Q13478 19-541; O95256 20-599); experiment: cell-based or functional assay
T2 sequence (looked up) 1: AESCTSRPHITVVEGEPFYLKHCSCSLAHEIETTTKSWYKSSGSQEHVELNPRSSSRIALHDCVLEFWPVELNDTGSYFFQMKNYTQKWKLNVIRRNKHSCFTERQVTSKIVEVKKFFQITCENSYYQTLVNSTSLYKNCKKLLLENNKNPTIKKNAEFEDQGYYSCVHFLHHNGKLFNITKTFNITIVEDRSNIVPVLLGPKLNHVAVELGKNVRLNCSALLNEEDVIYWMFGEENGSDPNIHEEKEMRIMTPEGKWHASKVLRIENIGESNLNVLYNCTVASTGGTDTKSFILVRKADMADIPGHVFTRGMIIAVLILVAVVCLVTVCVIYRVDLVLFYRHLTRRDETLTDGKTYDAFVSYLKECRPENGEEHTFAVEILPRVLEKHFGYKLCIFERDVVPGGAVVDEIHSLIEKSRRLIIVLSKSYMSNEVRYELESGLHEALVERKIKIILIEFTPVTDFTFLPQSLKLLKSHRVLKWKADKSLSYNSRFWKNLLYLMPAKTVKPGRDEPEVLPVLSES
T2 sequence (looked up) 2: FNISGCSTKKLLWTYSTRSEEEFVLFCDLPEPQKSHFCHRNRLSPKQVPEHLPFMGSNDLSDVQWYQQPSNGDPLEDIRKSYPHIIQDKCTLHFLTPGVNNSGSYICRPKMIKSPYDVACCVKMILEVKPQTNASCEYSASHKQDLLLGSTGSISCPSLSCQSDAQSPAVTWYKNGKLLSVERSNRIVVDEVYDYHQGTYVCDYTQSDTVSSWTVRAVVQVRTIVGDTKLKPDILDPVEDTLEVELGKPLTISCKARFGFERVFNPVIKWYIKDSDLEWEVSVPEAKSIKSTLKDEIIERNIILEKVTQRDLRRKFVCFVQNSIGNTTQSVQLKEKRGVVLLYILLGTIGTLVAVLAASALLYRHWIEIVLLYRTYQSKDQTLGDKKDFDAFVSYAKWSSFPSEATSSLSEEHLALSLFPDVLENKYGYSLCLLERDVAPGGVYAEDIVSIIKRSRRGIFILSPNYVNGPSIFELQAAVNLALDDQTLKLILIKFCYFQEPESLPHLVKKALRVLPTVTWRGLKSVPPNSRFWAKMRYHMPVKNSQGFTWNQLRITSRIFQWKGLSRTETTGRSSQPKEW

[2] = target: T2, IL-18 receptor (IL-18Rα/IL-18Rβ) on …; experiment: cell-based or functional assay; remark: listed apart in the source

B1: IL-18 polypeptide C142 (ligand)
chain: MFGKLKSKLSIIRNLNDQVLFIDQGNRPLFEDMTDSDARDNAPRTIFIISMYADSQPRGMAVAISVKCEKISTLSAENKIISFKEMNPPDNIKDTKSDIIFFQRSVPGHDNKMQFESSSYEGYFLAAEKERDLFKLILKKEDELGDRSIMFTVQNED
notes: also called Y1M, E6K, V11I, C38A, K53A, T63A, C76A, C127A
Kd (human IL-18BP-His): 2250 pM
EC50, HEK-Blue IL18R reporter cells [1]: 0.02 pM

B2: IL-18 polypeptide C148 (ligand)
chain: YAGKLESKLSIIRNLNDQVLFIDQGNRPLFEDMTDSDARDNAPRTIFIISMYADSQPRGMAVTISVKCEKISTLSAENKIISFKEMNPPDNIKDTKSDIIFFQRSVPGHDNKMQFESSSYEGYFLAAEKERDLFKLILKKEDELGDRSIMFTVQNED
notes: also called F2A, V11I, C38A, K53A, C76A, C127A
Kd (human IL-18BP-His): 57200 pM
EC50, IFNγ stimulation, NK92 cells [2]: 256 pM
EC50, HEK-Blue IL18R reporter cells [1]: 7.28 pM

B3: IL-18 polypeptide of SEQ ID NO: 56 (E6K, K53A, C38S, C76S, C127S) (ligand)
chain: YFGKLKSKLSVIRNLNDQVLFIDQGNRPLFEDMTDSDSRDNAPRTIFIISMYADSQPRGMAVTISVKCEKISTLSSENKIISFKEMNPPDNIKDTKSDIIFFQRSVPGHDNKMQFESSSYEGYFLASEKERDLFKLILKKEDELGDRSIMFTVQNED
Kd (human IL-18BP-His): 436000 pM
EC50, HEK-Blue IL18R reporter cells [1]: 3.73 pM

B6: IL-18 polypeptide C176 (ligand)
chain: YFGKLKSKLSIIRNLNDQVLFIDQGNRPLFEDMTDSDARDNAPRTIFIMSMYADSQPRGMAVAISVKCEKISTLSAENKIISFKEMNPPDNIKDTKSDIIFFQRSVPGHDNKMQFESSSYEGYFLAAEKERDLFKLILKKEDELGDRSIMFTVQNED
notes: also called E6K, V11I, C38A, I49M, K53A, T63A, C76A, C127A
Kd (human IL-18BP-His): 25800 pM
EC50, HEK-Blue IL18R reporter cells [1]: 0.07 pM

B7: IL-18 polypeptide C147 (ligand)
chain: YFGKLESKLSIIRNLNDQVLFIDQGNRPLFEDMTDSDARDNAPRTIFIISMYAASQPRGMAVTISVKCEKISTLSAENKIISFKEMNPPDNIKDTKSDIIFFQRSVPGHDNKMQFESSSYEGYFLAAEKERDLFKLILKKEDELGDRSIMFTVQNED
notes: also called V11I, C38A, K53A, D54A, C76A, C127A
Kd (human IL-18BP-His): 25800 pM
EC50, IFNγ stimulation, NK92 cells [2]: 79 pM
EC50, HEK-Blue IL18R reporter cells [1]: 1 pM

B8: IL-18 polypeptide C143 (ligand)
chain: YFGKLESKLSIIRNLNDQVLFIDQGNRPLFEDMTDSDARDNAPRTIFIISMYADSQPRGMAVTISVKCEKISTLSAENKIISFKEMNPPDNIKDTKSDIIFFQRSVPGHDNKMQFESSSYEGYFLAAEKERDLFKLILKKEDELGDRSIMFTVQNED
notes: also called V11I, C38A, K53A, C76A, C127A
Kd (human IL-18BP-His): 8860 pM
EC50, IFNγ stimulation, NK92 cells [2]: 138 pM
EC50, HEK-Blue IL18R reporter cells [1]: 0.98 pM

B10: IL-18 polypeptide C184 (ligand)
chain: YFGKLRSKLSIIRNLNDQVLFIDQGNRPLFEDMTDSDARDNAPRTIFIISMYADSQPRGMAVAISVKCEKISTLSAENKIISFKEMNPPDNIKDTKSDIIFFQRSVPGHDNKMQFESSSYEGYFLAAEKERDLFKLILKKEDELGDRSIMFTVQNED
notes: also called E6R, V11I, C38A, K53A, T63A, C76A, C127A
Kd (human IL-18BP-His): 5460 pM
EC50, HEK-Blue IL18R reporter cells [1]: 0.04 pM

B12: IL-18 polypeptide C150 (ligand)
chain: YFGKLESKLSIIRNLNDQVLFIDQGNRPLFEDMADSDARDNAPRTIFIISMYADSQPRGMAVTISVKCEKISTLSAENKIISFKEMNPPDNIKDTKSDIIFFQRSVPGHDNKMQFESSSYEGYFLAAEKERDLFKLILKKEDELGDRSIMFTVQNED
notes: also called V11I, T34A, C38A, K53A, C76A, C127A
Kd (human IL-18BP-His): 1240 pM
EC50, IFNγ stimulation, NK92 cells [2]: 15 pM
EC50, HEK-Blue IL18R reporter cells [1]: 0.7 pM

B13: IL-18 polypeptide C146 (SEQ ID NO: 68) (ligand)
chain: YFGKLESKLSIIRNLNDQVLFIDQGNRPLFEDMTDSDARDNAPRTIFIISGYADSQPRGMAVTISVKCEKISTLSAENKIISFKEMNPPDNIKDTKSDIIFFQRSVPGHDNKMQFESSSYEGYFLAAEKERDLFKLILKKEDELGDRSIMFTVQNED
notes: also called V11I, C38A, M51G, K53A, C76A, C127A
Kd (human IL-18BP-His): 373000 pM
EC50, IFNγ stimulation, NK92 cells [2]: 37 pM
EC50, HEK-Blue IL18R reporter cells [1]: 0.8 pM

B16: IL-18 polypeptide C145 (ligand)
chain: YFGKLESKLSIIRNLNDQVLFIDQGNRPLFEDMTDSDARDNAPRTIFIISMYADAQPRGMAVTISVKCEKISTLSAENKIISFKEMNPPDNIKDTKSDIIFFQRSVPGHDNKMQFESSSYEGYFLAAEKERDLFKLILKKEDELGDRSIMFTVQNED
notes: also called V11I, C38A, K53A, S55A, C76A, C127A
Kd (human IL-18BP-His): 9740 pM
EC50, IFNγ stimulation, NK92 cells [2]: 87 pM
EC50, HEK-Blue IL18R reporter cells [1]: 3.63 pM

B17: IL-18 polypeptide of SEQ ID NO: 55 (K53A, T63A, C38S, C68S, C76S, C127S, K70C) (ligand)
chain: YFGKLESKLSVIRNLNDQVLFIDQGNRPLFEDMTDSDSRDNAPRTIFIISMYADSQPRGMAVAISVKSECISTLSSENKIISFKEMNPPDNIKDTKSDIIFFQRSVPGHDNKMQFESSSYEGYFLASEKERDLFKLILKKEDELGDRSIMFTVQNED
Kd (human IL-18BP-His): 913000 pM
EC50, IFNγ stimulation, NK92 cells [2]: 17200 pM

B18: IL-18 polypeptide C151 (ligand)
chain: YFGKLESKLSIIRNLNDQVLFIDQGNRPLFEDMTASDARDNAPRTIFIISMYADSQPRGMAVTISVKCEKISTLSAENKIISFKEMNPPDNIKDTKSDIIFFQRSVPGHDNKMQFESSSYEGYFLAAEKERDLFKLILKKEDELGDRSIMFTVQNED
notes: also called V11I, D35A, C38A, K53A, C76A, C127A
Kd (human IL-18BP-His): 2880 pM
EC50, IFNγ stimulation, NK92 cells [2]: 61 pM
EC50, HEK-Blue IL18R reporter cells [1]: 13.1 pM

Binders with a lower Kd (human IL-18BP-His), results first:

Kd (human IL-18BP-His): 140 pM
EC50, HEK-Blue IL18R reporter cells [1]: 0.29 pM
B4: IL-18 polypeptide C174 (ligand)
chain: YFGKLKSLLSIIRNLNDQVLFIDQGNRPLFEDMTDSDARDNAPRTIFIISMYADSQPRGMAVAISVKCEKISTLSAENKIISFKEMNPPDNIKDTKSDIIFFQRSVPGHDNKMQFESSSYEGYFLAAEKERDLFKLILKKEDELGDRSIMFTVQNED
notes: also called K8L, E6K, V11I, C38A, K53A, T63A, C76A, C127A

Kd (human IL-18BP-His): 660 pM
EC50, IFNγ stimulation, NK92 cells [2]: 12 pM
EC50, HEK-Blue IL18R reporter cells [1]: 0.17 pM
B5: IL-18 polypeptide C144 (ligand)
chain: YFGKLESKLSIIRNLNDQVLFIDQGNRPLFEDMTDSDARDNAPRTIFIISMYADSQPRGMAVAISVKCEKISTLSAENKIISFKEMNPPDNIKDTKSDIIFFQRSVPGHDNKMQFESSSYEGYFLAAEKERDLFKLILKKEDELGDRSIMFTVQNED
notes: also called V11I, C38A, K53A, T63A, C76A, C127A

Kd (human IL-18BP-His): 1120 pM
EC50, IFNγ stimulation, NK92 cells [2]: 33 pM
EC50, HEK-Blue IL18R reporter cells [1]: 0.25 pM
B9: IL-18 polypeptide C152 (ligand)
chain: YFGKLESKLSIIRNLNDQVLFIDQGNRPLFEDMTDADARDNAPRTIFIISMYADSQPRGMAVTISVKCEKISTLSAENKIISFKEMNPPDNIKDTKSDIIFFQRSVPGHDNKMQFESSSYEGYFLAAEKERDLFKLILKKEDELGDRSIMFTVQNED
notes: also called V11I, S36A, C38A, K53A, C76A, C127A

Kd (human IL-18BP-His): 640 pM
EC50, IFNγ stimulation, NK92 cells [2]: 187 pM
EC50, HEK-Blue IL18R reporter cells [1]: 6.6 pM
B11: IL-18 polypeptide C149 (ligand)
chain: YFGKLESKLSIIRNLNDQVLFIDQGNRPLFADMTDSDARDNAPRTIFIISMYADSQPRGMAVTISVKCEKISTLSAENKIISFKEMNPPDNIKDTKSDIIFFQRSVPGHDNKMQFESSSYEGYFLAAEKERDLFKLILKKEDELGDRSIMFTVQNED
notes: also called V11I, E31A, C38A, K53A, C76A, C127A

Kd (human IL-18BP-His): 30 pM
EC50, IFNγ stimulation, NK92 cells [2]: 115 pM
B14: IL-18 polypeptide of SEQ ID NO: 47 (C38S, C68S, C76S, C127S) (ligand)
chain: YFGKLESKLSVIRNLNDQVLFIDQGNRPLFEDMTDSDSRDNAPRTIFIISMYKDSQPRGMAVTISVKSEKISTLSSENKIISFKEMNPPDNIKDTKSDIIFFQRSVPGHDNKMQFESSSYEGYFLASEKERDLFKLILKKEDELGDRSIMFTVQNED

Kd (human IL-18BP-His): 210 pM
EC50, IFNγ stimulation, NK92 cells [2]: 488 pM
B15: IL-18 polypeptide of SEQ ID NO: 48 (C38S, C68S, C76S, C127S, K70C) (ligand)
chain: YFGKLESKLSVIRNLNDQVLFIDQGNRPLFEDMTDSDSRDNAPRTIFIISMYKDSQPRGMAVTISVKSECISTLSSENKIISFKEMNPPDNIKDTKSDIIFFQRSVPGHDNKMQFESSSYEGYFLASEKERDLFKLILKKEDELGDRSIMFTVQNED
